# Patent publication US6582689B1, “IL-18/IGIF chemotherapeutic compositions” (Smithkline Beecham Corporation, priority 1998, dated 2003)
# “Also recorded” adds a separate entry of the source. Like-named read-outs stand apart in the source and are kept apart here.
# B1: IL-18: cytokine, interferon-γ-inducing factor; murine IL-18 (SEQ ID NO:2) was administered to mice (protein)
# chain: NFGRLHCTTAVIRNINDQVLFVDKRQPVFEDMTDIDQSASEPQTRLIIYMYKDSEVRGLAVTLSVKDSKMSTLSCKNKIISFEEMDPPENIDDIQSDLIFFQKRVPGHNKMEFESSLYEGHFLACQKEDDAFKLILKKKDENGDKSVMFTLTNLHQS
# modifications: Mouse
# How the values were obtained:
# B16F10 melanoma [1] = assay: advanced subcutaneous B16F10 melanoma, repeat with cyclophosphamide (Example VII); type: in vivo, mice; conditions: for regressions: treatment from median 100 mm^3 (Day 14)
# B16F10 melanoma [2] = assay: advanced subcutaneous B16F10 melanoma (Example VI); type: in vivo, mice
# Experimental: In this experiment, IL-18 was evaluated in an advanced syngeneic tumor model alone and in combination with chemotherapy. Mice bearing advanced subcutaneous B16F10 melanoma were treated with IL-18 alone or in combination with either cyclophosphamide or topotecan. Treatment was initiated on Day 11 postimplantation.
# MOPC-315 plasmacytoma [3] = assay: established subcutaneous MOPC-315 plasmacytoma (Example III); type: in vivo, BALB/c mice
# Experimental: The MOPC-315 plasmacytoma is analogous to the human cancer known as multiple myeloma. This tumor is a malignancy of the plasma cells, a mature form of B lymphocytes involved in antibody expression. MOPC-315 grows rapidly to a very large size in syngeneic BALB/c mice. It is not highly metastatic or invasive.
# IL-18 was evaluated in mice bearing established subcutaneous MOPC-315 plasmacytoma. In order to increase chances of seeing an effect of immunotherapy, IL-18 was evaluated in combination with an effective chemotherapeutic agent as well as by monotherapy. IL-18 at 0.3, 1, 3, and 10 μg/mouse was administered daily intraperitonealy and topotecan was administered intraperitonealy on a q4D schedule at 9 and 15 mg/kg. Both drugs were started on Day 11 postimplantation when the median tumor volume ranged from 32 to 88 mg. Control tumors took 17.2 days to grow to 1 gram. (See FIGS. 5-7).
# MOPC-315 plasmacytoma [4] = assay: advanced MOPC-315 plasmacytoma, confirmation with higher IL-18 doses (Example IV); type: in vivo, mice
# Experimental: The activity of IL-18 in combination with topotecan in mice bearing advanced MOPC-315 plasmacytoma was confirmed in a large experiment in which higher doses of IL-18 were used. In this experiment, topotecan was administered q4D×6 beginning on Day 10 and IL-18 was given qD×30 beginning on the same day. Both drugs were administered intraperitonealy and activity was assessed by tumor measurements.
# Lewis lung carcinoma [5] = assay: advanced systemic Lewis lung carcinoma, confirmation with higher IL-18 doses (Example II); conditions: for tumor weight and nodule count: Day 14
# Experimental: This experiment included the use of higher doses of IL-18. […] The remaining mice were continued under treatment and monitored for survival. Topotecan was administered intraperitonealy q4D×6 on Days 7, 11, 15, 19, 23, and 29; dosage levels shown are mg/kg. Murine IL-18 was administered intraperitonealy qD×26 from Day 7 to Day 33; dosage levels shown are μg/mouse.
# Lewis lung carcinoma [6] = tested on: Lewis lung carcinoma
# Experimental: Treatment was delayed until Day 7 when tumors were established and growing in the lungs. Half of the mice in each group were killed on Day 16 to determine effects of treatment on pulmonary tumor growth, the remaining mice were continued under treatment and monitored for survival. […] Topotecan was administered intraperitonealy q4D×7 beginning on Day 7 and ending on Day 32 and the doses shown are in mg/kg. Murine IL-18 was administered intraperitonealy UID from Day 7 to Day 32 and the doses shown are μg/mouse. There were 3 groups of control animals, all of which died between Day 17 and 30.
# [7] = mouse, in vivo
# Experimental: (§1) An experiment was conducted to determine the effectiveness of IL-18 on its own and in combination with doxorubicin in the 16/c mammary adenocarcinoma tumor model. The 16/c line was implanted subcutaneously at a 1:10 brei and allowed to grow to a median of 52-109 mm^3 before initiation of treatment. Doxorubicin was administered intravenously on Days 12 and 19 at 7.2, 12, and 20 mg/kg. IL-18 was administered subcutaneously at 1, 10, and 100 μg/mouse on a qD×21 schedule starting from Day 12. The endpoints of this study were tumor growth delay and regression.
# [8] = toxicity and toxic deaths in the 16/c experiment (Example IX)
# Experimental: as §1
# [9] = tested on: mammary adenocarcinoma 16/c; assay: subcutaneous mammary adenocarcinoma 16/c, IL-18 and doxorubicin (Example IX); type: in vivo, mouse; conditions: for regressions: alone or combined
# Experimental: as §1
# [10] = paclitaxel 24 mg/kg iv qD×5
# [11] = tested on: Madison 109 lung carcinoma; assay: subcutaneous Madison 109 lung carcinoma, IL-18 and paclitaxel (Example VIII); type: in vivo, mouse; conditions: for regressions: alone or combined
# colon 26 adenocarcinoma = conditions: Hanaya et al. 1996; cited from earlier work
# MOPC-315 plasmacytoma [12] = assay: advanced MOPC-315 plasmacytoma, schedule and route study (Example V); type: in vivo, mice
# Experimental: The evaluation of IL-18 in combination with chemotherapy was repeated to establish: (a) how effective is IL-18 in tumor models when given subcutaneously and (b) whether IL-18 is active when given on an intermittent schedule or whether daily treatment is necessary. The experiment was set up again with topotecan in the advanced MOPC-315 plasmacytoma model with treatment starting on Day 10 when tumors were about 100 mm^3 in volume. Topotecan was given at its MTD of 15 mg/kg on a q4D regimen and IL-18 was given over a broad dosage range either intraperitonealy or subcutaneously on a q1D or q4D regimen. […] However, IL-18 was continued. (See FIGS. 11-13).
# [13] = cyclophosphamide MTD 300 mg/kg q7D
# [14] = topotecan MTD 15 mg/kg ip q4D from Day 11
# [15] = topotecan 9 mg/kg ip q4D×6 from Day 7
# [16] = topotecan 15 mg/kg ip q4D×6 from Day 7
# [17] = topotecan MTD 15 mg/kg q4D, Day 16
# [18] = IL-18 1 μg/mouse ip qD×26 Day 7-33
# [19] = IL-18 3 μg/mouse ip qD×26 Day 7-33
# [20] = IL-18 10 μg/mouse ip qD×26 Day 7-33
# [21] = IL-18 30 μg/mouse ip qD×26 Day 7-33
# [22] = IL-18 100 μg/mouse ip qD×26 Day 7-33
# [23] = IL-18 0.3 μg/mouse ip UID Day 7-32
# [24] = IL-18 1 μg/mouse ip UID Day 7-32
# [25] = IL-18 3 μg/mouse ip UID Day 7-32
# [26] = IL-18 10 μg/mouse ip UID Day 7-32
# [27] = IL-18 alone 0.3-10 μg/mouse ip UID, Day 16, no clear dose-response
molecule,measurement,setting,value
"O=P1(N(CCCl)CCCl)NCCCO1 (stereo not shown) [Cyclophosphamide, cyclophosphamide]",tumor growth delay,B16F10 melanoma [1]; cyclophosphamide MTD,14 days
same,tumor growth delay,B16F10 melanoma [1]; cyclophosphamide suboptimal dose 180 mg/kg,4 days
same,regressions,B16F10 melanoma [1],no regressions
same,increase in survival,B16F10 melanoma [2]; [13],95%
same,tumor growth delay,B16F10 melanoma [2]; [13],14 days
"CC[C@@]1(O)C(=O)OCc2c1cc1n(c2=O)Cc2cc3c(CN(C)C)c(O)ccc3nc2-1 [Topotecan, topotecan, reference compound]",regressions,MOPC-315 plasmacytoma [3]; topotecan 9 mg/kg ip q4D,no regressions
same,tumor growth delay,MOPC-315 plasmacytoma [3]; topotecan 9 mg/kg ip q4D,4 days
same,complete regressions,MOPC-315 plasmacytoma [3]; [14],1/7
same,tumor growth delay,MOPC-315 plasmacytoma [3]; [14],about 12 days
same,complete regressions,MOPC-315 plasmacytoma [4]; topotecan MTD alone ip q4D×6 from Day 10,2/6
same,effect on tumor,MOPC-315 plasmacytoma [4]; topotecan suboptimal dose alone,virtually no effect
same,Increase in Lifespan,Lewis lung carcinoma [5]; [15],42%
same,Median Survival Time,Lewis lung carcinoma [5]; [15],25.5 days
same,Increase in Lifespan,Lewis lung carcinoma [5]; [16],86%
same,Median Survival Time,Lewis lung carcinoma [5]; [16],33.5 days
same,tumor weight and nodule count,Lewis lung carcinoma [5]; topotecan MTD 15 mg/kg,good reduction in tumor weight and nodule count
same,tumor weight and nodule count,Lewis lung carcinoma [5]; topotecan lower dose 9 mg/kg,lesser effect on both parameters
same,antitumor activity,B16F10 melanoma [2]; topotecan at its MTD,inactive
same,Increase in Lifespan,Lewis lung carcinoma [6]; topotecan 9.0 mg/kg (0.6×MTD) ip q4D×7 from Day 7,63%
same,Median Survival Time,Lewis lung carcinoma [6]; topotecan 9.0 mg/kg ip q4D×7 from Day 7,36 days
same,Increase in Lifespan,Lewis lung carcinoma [6]; topotecan 15 mg/kg (MTD) ip q4D×7 from Day 7,68%
same,Median Survival Time,Lewis lung carcinoma [6]; topotecan 15 mg/kg ip q4D×7 from Day 7,37 days
same,average number of pulmonary tumor nodules,Lewis lung carcinoma [6]; [17],45
same,suppression of tumor growth,Lewis lung carcinoma [6]; [17],> 90%
"COc1cccc2c1C(=O)c1c(O)c3c(c(O)c1C2=O)C[C@@](O)(C(=O)CO)C[C@@H]3O[C@H]1C[C@H](N)[C@H](O)[C@H](C)O1 [Doxorubicin, doxorubicin]",weight loss,[7],no weight loss
same,MTD,"[8]; mouse, in vivo, iv",20 mg/kg
same,regressions,[9],no regressions
same,tumor growth delay,"[9]; doxorubicin 7.2, 12, 20 mg/kg iv",dose-dependent tumor growth delay
same,efficacy,[9]; doxorubicin at 1/3 of its MTD,little or no efficacy
"CC(=O)O[C@H]1C(=O)[C@@]2(C)[C@H]([C@H](OC(=O)c3ccccc3)[C@]3(O)C[C@H](OC(=O)[C@H](O)[C@@H](NC(=O)c4ccccc4)c4ccccc4)C(C)=C1C3(C)C)[C@]1(OC(C)=O)CO[C@@H]1C[C@@H]2O [Paclitaxel, paclitaxel, reference compound]",body weight loss,[10],4.7 g
same,regressions,[11],no regressions
same,ILS (increased life span),[11]; paclitaxel 12 mg/kg iv qD×5,27% ILS
same,T-C: tumor growth delay,[11]; paclitaxel 12 mg/kg iv qD×5 (Days 9-13),"T-C 3.5 days,"
same,ILS (increased life span),[11]; paclitaxel 24 mg/kg iv qD×5,35% ILS
same,T-C: tumor growth delay,[11]; paclitaxel 24 mg/kg iv qD×5,"T-C 9.7 days,"
same,survival,[11]; paclitaxel alone,minimal prolongation of survival
same,tumor growth delay,[11]; paclitaxel alone,minimal tumor growth delay
B1,toxicity,[8]; IL-18 1 μg/mouse qD×21 from Day 12,Not Toxic
same,toxicity,[8]; IL-18 10 μg/mouse qD×21 from Day 12,Not Toxic
same,toxicity,[8]; IL-18 100 μg/mouse qD×21 from Day 12,Not Toxic
same,tumor growth delay,"MOPC-315 plasmacytoma [3]; IL-18 alone 0.3, 1, 3, 10 μg/mouse daily ip from Day 11",1.3 to 3.1 days
same,effect on tumor growth of established tumors,MOPC-315 plasmacytoma [3]; IL-18 alone 0.3-10 μg/mouse daily ip from Day 11,only a minimal effect on the tumor growth; also recorded: no effect of IL-18 alone on tumor growth
same,complete regressions,MOPC-315 plasmacytoma [4]; IL-18 alone 100 μg/mouse/day ip qD×30 from Day 10,4 of 6
same,effect on tumor,"MOPC-315 plasmacytoma [4]; IL-18 alone, doses lower than 100 μg/mouse/day",ineffective
same,metastasis and growth of tumor,colon 26 adenocarcinoma,inhibit the metastasis and growth of colon 26 adenocarcinoma
same,tumor growth delay,"[9]; IL-18 alone 1-100 μg/mouse, no dose-response",less than a week
same,regressions,[9],no regressions
same,Increase in Lifespan,Lewis lung carcinoma [5]; [18],11%
same,Median Survival Time,Lewis lung carcinoma [5]; [18],20 days
same,Increase in Lifespan,Lewis lung carcinoma [5]; [19],0%
same,Median Survival Time,Lewis lung carcinoma [5]; [19],18 days
same,Increase in Lifespan,Lewis lung carcinoma [5]; [20],0%
same,Median Survival Time,Lewis lung carcinoma [5]; [20],18 days
same,Increase in Lifespan,Lewis lung carcinoma [5]; [21],3%
same,Median Survival Time,Lewis lung carcinoma [5]; [21],18.5 days
same,Increase in Lifespan,Lewis lung carcinoma [5]; [22],22%
same,Median Survival Time,Lewis lung carcinoma [5]; [22],22 days
same,tumor growth delay,B16F10 melanoma [1]; IL-18 alone,about 2 days
same,regressions,B16F10 melanoma [1],no regressions
same,ILS (effect on survival time),B16F10 melanoma [2]; IL-18 alone from Day 11,< 30%
same,effect on tumor growth,B16F10 melanoma [2]; IL-18 alone from Day 11,no effect on tumor growth
same,antitumor activity,"MOPC-315 plasmacytoma [12]; IL-18 alone q1D 100 μg/day, ip and sc",active
same,route comparison,"MOPC-315 plasmacytoma [12]; IL-18 alone q1D 100 μg/day, ip versus sc",intraperitoneal was more effective
same,induction of regression,"MOPC-315 plasmacytoma [12]; IL-18 alone, intermittent, 1000 or 100 μg/dose",ineffective in inducing regression
same,T-C: tumor growth delay,[11]; IL-18 1 μg sc qD×21,"T-C 1.7 days,"
same,ILS (increased life span),[11]; IL-18 10 μg sc qD×21,12% ILS
same,T-C: tumor growth delay,[11]; IL-18 10 μg sc qD×21,"T-C 2.1 days,"
same,ILS (increased life span),[11]; IL-18 100 μg sc qD×21,0% ILS
same,T-C: tumor growth delay,[11]; IL-18 100 μg sc qD×21,"T-C 2.8 days,"
same,tumor growth,[11]; IL-18 alone at the low dose,without delaying tumor growth
same,regressions,[11],no regressions
same,Increase in Lifespan,Lewis lung carcinoma [6]; [23],0%
same,Median Survival Time,Lewis lung carcinoma [6]; [23],22 days
same,Increase in Lifespan,Lewis lung carcinoma [6]; [24],2%
same,Median Survival Time,Lewis lung carcinoma [6]; [24],22.5 days
same,Increase in Lifespan,Lewis lung carcinoma [6]; [25],4%
same,Median Survival Time,Lewis lung carcinoma [6]; [25],23 days
same,Increase in Lifespan,Lewis lung carcinoma [6]; [26],9%
same,Median Survival Time,Lewis lung carcinoma [6]; [26],24 days
same,effect on survival time,Lewis lung carcinoma [6]; IL-18 alone 0.3-10 μg/mouse ip UID,no effect on survival time; also recorded: did not have an enhanced median survival time
same,lung tumor nodule count,Lewis lung carcinoma [6]; [27],significantly decreased
same,lung tumor weight,Lewis lung carcinoma [6]; [27],significantly decreased
